According to patent publication US11433139B2, “Peptide vaccines against interleukin-31” (Zoetis Services LLC, priority 2018, dated 2022):

Assays:
[1] = test system: canine IL-31; assay: Biacore binding, single test concentration of antibody, canine IL-31 surface
Protocol: (§1) For the indirect ELISA, binding (ELISA OD) to wildtype feline IL-31 and a feline IL-31 15H05 mutant which had mutations in the monoclonal antibody 15H05 epitope region was assessed. To confirm binding, biacore analysis was performed using canine, feline, equine, human, the feline 15H05 mutant, and feline 11E12 mutant IL-31 proteins as surfaces and a single test concentration of antibody. The feline IL-31 11E12 mutant had mutations in the monoclonal antibody 11E12 epitope region.
(§2) For the indirect ELISA method, antibody binding to wildtype and feline IL-31 15H05 mutant proteins was assessed. […] In comparison, the 11E12 antibody bound to the wild-type feline IL-31 and its binding was not impacted by the mutations in the 15H05 epitope region as evidenced by the data in FIG. 4. To confirm binding, biacore analysis was performed using canine, feline, equine, human, feline 15H05 mutant, and feline 11E12 mutant IL-31 proteins as surfaces and a single test concentration of antibody. Similar to ELISA observations, all antibodies tested bound to wildtype feline IL-31. In agreement with the data described above in this section, mouse antibodies 11 E12 and 15H05 both bound to canine and feline IL-31 surfaces. […] From this group of nine fully canine antibodies, only ZIL1 and ZIL9 cross-reacted with equine IL-31. Of note, antibody 15H05 was the only one of all assayed herein that bound to canine, feline, and equine IL-31 indicating some level of epitope conservation across the three species. In contrast, none of the antibodies described herein bound to human IL-31. Additional biacore surfaces were used to verify ELISA observations showing differential binding of antibodies to wildtype feline IL-31 and two proteins with mutations in the 15H05 (15H05 mutant) or 11 E12 (11E12 mutant) epitopes. […] Differing results can be attributed to differences in the two assay methodologies.

[2] = test system: canine IL-31; assay: Competition binding assessment using Biacore, canine IL-31 surface; details: sequential addition of 15H05 and 11E12, Biacore
Protocol: To further characterize the IL-31 epitopes bound by mAbs 15H05 and 11 E12, blocking experiments were performed using biacore where the surface containing the IL-31 protein was generated followed by sequential addition of antibodies. FIGS. 7A and 7B show the relative binding of each antibody to IL-31 following capture of 11E12 or 15H05. The columns labeled HBS-EP (assay buffer) indicate the maximum signal obtained from each antibody binding to the IL-31 surface alone without competition. […] The sensograms related to FIG. 7A show the disassociation kinetics of both antibodies are very slow on this newly formed biacore surface therefore no additional occupation of binding sites can occur with addition of the same antibody (data not shown).

[3] = test system: feline IL-31 11E12 mutant; assay: Indirect ELISA, binding to feline IL-31 11E12 mutant; details: compared with wildtype
Chain of feline IL-31 11E12 mutant (as listed by the source, change not shown): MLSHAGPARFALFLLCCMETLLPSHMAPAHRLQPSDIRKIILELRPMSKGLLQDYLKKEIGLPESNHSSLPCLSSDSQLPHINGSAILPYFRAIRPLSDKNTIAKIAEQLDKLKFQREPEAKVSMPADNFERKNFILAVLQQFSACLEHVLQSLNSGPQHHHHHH
Source text: To determine the impact of mAbs 11E12 and 15H05 ability to bind these mutant forms of feline IL-31, an indirect ELISA was run using the mutants directly coated on to an immunoassay plate. […] The minor attenuation of mAb 15H05s binding to the 11E12 mutant is likely due to translational effects of the mutations from movement of the two front helices effecting the 15H05 binding site. The mutations designed to affect mAb 15H05s binding (mutant 15H05) show a complete loss of mAb 1505s ability to bind this IL-31 mutant by ELISA. Unlike the 11E12 mutant, the changes in the random coil recognized by mAb 15H05 (mutant 15H05) had no impact on mAb 11E12 binding further supporting the distinction between the two epitopes (FIG. 6C).

[4] = test system: feline 11E12 mutant IL-31; assay: Biacore binding, single test concentration of antibody, feline 11E12 mutant IL-31 surface
Chain of feline 11E12 mutant IL-31 (as listed by the source, stated change not applied): as the sequence (as listed by the source, change not shown) above
Method in brief: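 Surface plasmon resonance with IL-31 proteins (wildtype feline, equine, or feline proteins mutated in the 15H05 or 11E12 epitope regions) immobilized as surfaces. Each antibody injected at a single test concentration to score binding.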

[5] = molecular target: canine IL-31; assay: Affinity of anti-IL-31 antibodies by surface plasmon resonance (Biacore), canine IL-31 surface; assay type: binding; details: IL-31 conjugated to the surface (FIG. 2)
Method in brief: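 IL-31 amine-coupled (NHS/EDC) at 5 μg/mL directly onto the SPR chip, quenched with ethanolamine; candidate mAbs flowed over as analyte. KD from 1:1 model fits; values below 1×10^−11 M are under the instrument's lower quantitation limit.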

[6] = test system: equine IL-31; assay: Biacore binding, single test concentration of antibody, equine IL-31 surface
Chain of equine IL-31 (as listed by the source): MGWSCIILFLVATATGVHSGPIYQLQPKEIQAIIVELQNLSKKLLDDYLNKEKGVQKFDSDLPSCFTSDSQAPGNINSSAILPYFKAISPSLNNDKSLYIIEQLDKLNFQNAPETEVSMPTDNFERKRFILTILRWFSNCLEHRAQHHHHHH
Protocol: as §1, §2

[7] = molecular target: T1, canine IL-31 (Canis lupus familiaris, UniProt A0A8I3S3D1); assay: Inhibition of canine IL-31 induced pSTAT3 signaling in canine DH-82 and feline FCWF4 cells; assay type: cell-based
T1 construct: made in house; host or cells: CHO cells (CHROMOS ACE system)
T1 sequence (A0A8I3S3D1 24-159): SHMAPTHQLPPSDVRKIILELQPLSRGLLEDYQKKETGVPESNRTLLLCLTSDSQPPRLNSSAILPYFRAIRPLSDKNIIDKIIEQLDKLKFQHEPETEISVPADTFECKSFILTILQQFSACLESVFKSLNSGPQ
Method in brief: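 DH-82 cells primed with canine IFN-γ 10 ng/mL for 24 h, FCWF4 with feline IFN-γ 125 ng/mL for 96 h, then serum-starved 2 h. mAb pre-incubated 1 h with 1 μg/mL canine or 0.2 μg/mL feline IL-31, cells stimulated 5 min; pSTAT3 by AlphaLISA SureFire, IC50 as half-maximal signalling reduction.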

Chain of canine IL-31 (as listed by the source): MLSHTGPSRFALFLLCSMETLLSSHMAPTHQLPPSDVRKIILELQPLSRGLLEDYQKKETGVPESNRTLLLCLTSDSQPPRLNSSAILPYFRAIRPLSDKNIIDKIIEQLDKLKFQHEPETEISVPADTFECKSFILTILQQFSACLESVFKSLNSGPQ

B1: 15H05: mouse anti IL-31 monoclonal antibody, VH SEQ ID NO: 67, VL SEQ ID NO: 69 (antibody, listed as Mus musculus, V domains shown)
VH: QVQLQQSAAELARPGASVKMSCKTSGYTFTSYTIHWIKQRPGQGLEWIGNINPTSGYTENNQRFKDKTTLTVDRSSNTAYLQLHSLTSEDSAVYFCARWGFKYDGEWSFDVWGAGTTVTVSS
VL: DIQMNQSPSSLSASLGDTITVTCRASQGISIWLSWYQQKPGNIPKVLINKASNLHIGVPPRFSGSGSGTHFTLTITSLQPEDIATYYCLQSQTYPLTFGGGTKLEIN
For B1, the “binding to canine IL-31 (Biacore)” value [1] was “bound”, the “competition binding on canine IL-31” value [2] was “capable of binding to canine IL-31 in the presence of one another” and the “binding to feline IL-31 11E12 mutant (ELISA)” value [3] was “partially attenuated”. The “binding to feline 11E12 mutant IL-31 (Biacore)” value [4] was “retained binding”, the “affinity (KD) to canine IL-31” value ([5]; listed as Mu-15H05) was “sub-nanomolar” and the “affinity (KD) to canine IL-31” value ([5]; listed as mAb 15H05) was “high”. For the same molecule, the “binding to equine IL-31 (Biacore)” value [6] was “bound”, the “blocking of canine IL-31 signaling in canine cells” value ([7]; canine IL-31, canine cells) was “capable of blocking canine IL-31 signaling” and the “blocking of canine IL-31 signaling in feline cells” value ([7]; canine IL-31, feline cells) was “capable of blocking canine IL-31 signaling”.
